# Data: PMC7515725
# Tests used:
# LexA = assay: FRET LexA titration; settings: 75 mM NaCl, absolute S1/2 only in figure, LexA FRET: 10 nM nucleosome, 0-100 uM LexA, 0.5x TE, 10 min, nucleosomes reconstituted by KCl step dialysis (2 M to 10 mM), 10 mM Tris-HCl pH 7.8 …, scale: % decrease of S1/2 vs unmodified nucleosome
# [1] = system: Histone octamer, H2B T112C or end-label DNA FRET, unmodified H4 (Xenopus laevis); assay: FRET salt titration; settings: C1/2 is the NaCl concentration for 50% FRET loss, LexA FRET: 10 nM nucleosome, 0-100 uM LexA, 0.5x TE, 75 mM NaCl, 10 min, nucleosomes reconstituted by KCl step dialysis (2 M to 10 mM), 10 mM Tris-HCl pH 7.8 …
# [2] = system: Histone octamer with H4K77succ (Xenopus laevis); assay: FRET salt titration; settings: LexA FRET: 10 nM nucleosome, 0-100 uM LexA, 0.5x TE, 75 mM NaCl, 10 min, nucleosomes reconstituted by KCl step dialysis (2 M to 10 mM), 10 mM Tris-HCl pH 7.8 …
substance,measurement,setting,value
"601 DNA with LexA site, in H4K77succ nucleosome",binding signal,LexA,45.5
MMTV-B,K half,[1],0.475 M NaCl
same,binding signal (% decrease of C1/2 vs unmodified),[2]; NaCl titration,9
"Widom 601, end-labelled",K half,[1]; not a protein Kd,0.621 M NaCl
same,K half,"[2]; C1/2 is the NaCl concentration for 50% FRET loss, 14.8% lower than unmodified",0.529 M NaCl
